# Assay results reported in PMC10873582.
# What was measured:
# [1] = molecular target: CmCalS1 of 'Dongyangshenli' (Cucurbita moschata ('Dongyangshenli'))
# [2] = molecular target: CmCalS1 of figleaf gourd (Cucurbita ficifolia (figleaf gourd))
"CmCalS1 enzyme activity in vitro with CmNAC100L1 added (CmNAC100L1 3.5 ng, CmCalS1 85 ng); 18.61 U L^-1 without CmNAC100L1 [1] [U L^-1]","CmCalS1 enzyme activity in vitro with CmNAC100L1 added (CmNAC100L1 3.5 ng, CmCalS1 85 ng); 10.33 U L^-1 without CmNAC100L1 [2] [U L^-1]",Substance
47.8,,CmNAC100L1 of 'Dongyangshenli' (natural protein)
,3.23,CmNAC100L1 of figleaf gourd (natural protein)
